According to US20260327314 (published 2026):
Where two headings read alike, the source gives them in different places.

T1: Human CD16B (human)
T1 chain: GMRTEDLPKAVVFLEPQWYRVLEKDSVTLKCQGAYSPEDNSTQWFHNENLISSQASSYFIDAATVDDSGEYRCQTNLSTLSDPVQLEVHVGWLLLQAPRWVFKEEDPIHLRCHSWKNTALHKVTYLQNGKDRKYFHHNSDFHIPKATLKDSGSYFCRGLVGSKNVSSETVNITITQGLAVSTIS


Tests used:
[1] = biological target: Human CD16A 158F (human); test: BLI
[2] = biological target: Human CD16A 158V (human); test: ELISA
Target sequence in this assay (chain, as listed by the source): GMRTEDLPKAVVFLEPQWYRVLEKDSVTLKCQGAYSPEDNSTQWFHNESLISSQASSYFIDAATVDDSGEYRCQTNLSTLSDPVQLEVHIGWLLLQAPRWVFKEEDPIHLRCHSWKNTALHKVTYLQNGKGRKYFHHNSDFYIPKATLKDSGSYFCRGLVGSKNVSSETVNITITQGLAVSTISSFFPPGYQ

[3] = biological target: Human CD16A 158V (human); test: BLI
[4] = biological target: Human CD16A 158F (human); test: ELISA
Target sequence in this assay (chain, as listed by the source): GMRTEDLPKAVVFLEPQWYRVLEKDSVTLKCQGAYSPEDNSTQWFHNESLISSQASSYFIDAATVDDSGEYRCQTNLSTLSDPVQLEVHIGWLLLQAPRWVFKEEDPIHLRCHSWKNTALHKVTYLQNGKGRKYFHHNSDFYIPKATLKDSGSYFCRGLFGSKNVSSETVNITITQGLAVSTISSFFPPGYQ

[5] = biological target: Human CD16A 158V (human); test: ELISA; remark: listed apart in the source
[6] = biological target: T1, Human CD16B; test: ELISA

| Binder | Kd [1] [nM] | EC50 [2] [nM] | Kd [3] [nM] | EC50 [4] [nM] | EC50 [5] [nM] | binding result [6] |
| --- | --- | --- | --- | --- | --- | --- |
| CD16-VH-RM82 (antibody) EVQLVESGGGLVQPGGSLRLSCAASGFTFSNYGMSWVRQAPGKGLEWIGSIYYSVSTNYNPSLKSLVTISRDNSKNTLYLQMNSLRAEDTATYYCARESIDYWGQGTLVTVSS | 5.26 | 3.2 | – | 3.29 | – | – |
| CD16-VH-RM80 (antibody) EVQLVESGGGLVQPGGSLRLSCAASGFTFSNYGMSWVRQAPGKGLEWIGSIYYDGSTNYNPSLKSLVTISRDNSKNTLYLQMNSLRAEDTATYYCARESIDYWGQGTLVTVSS | 3.99 | 3.32 | – | 3.03 | – | – |
| CD16-VH-RM75 (antibody) EVQLVESGGGLVQPGGSLRLSCAASGFTFSNYGMSWVRQAPGKGLEWIGSIYYSGDTNYNPSLKSLVTISRDNSKNTLYLQMNSLRAEDTATYYCARESIDYWGQGTLVTVSS | 2.62 | 2.06 | 3.51 | 3.04 | – | – |
| BM130-92 (Margetuximab) (antibody) chain 1: QVQLQQSGPELVKPGASLKLSCTASGFNIKDTYIHWVKQRPEQGLEWIGRIYPTNGYTRYDPKFQDKATITADTSSNTAYLQVSRLTSEDTAVYYCSRWGGDGFYAMDYWGQGASVTVSSASTKGPSVFPLAPSSKSTSGGTAALGCLVKDYFPEPVTVSWNSGALTSGVHTFPAVLQSSGLYSLSSVVTVPSSSLGTQTYICNVNHKPSNTKVDKRVEPKSCDKTHTCPPCPAPELVGGPSVFLLPPKPKDTLMISRTPEVTCVVVDVSHEDPEVKFNWYVDGVEVHNAKTKPPEEQYNSTLRVVSVLTVLHQDWLNGKEYKCKVSNKALPAPIEKTISKAKGQPREPQVYTLPPSRDELTKNQVSLTCLVKGFYPSDIAVEWESNGQPENNYKTTPLVLDSDGSFFLYSKLTVDKSRWQQGNVFSCSVMHEALHNHYTQKSLSLSPGK chain 2: DIVMTQSHKFMSTSVGDRVSITCKASQDVNTAVAWYQQKPGHSPKLLIYSASFRYTGVPDRFTGSRSGTDFTFTISSVQAEDLAVYYCQQHYTTPPTFGGGTKVEIKRTVAAPSVFIFPPSDEQLKSGTASVVCLLNNFYPREAKVQWKVDNALQSGNSQESVTEQDSKDSTYSLSSTLTLSKADYEKHKVYACEVTHQGLSSPVTKSFNRGEC | – | – | – | – | 45.1 | no binding |

Now from value to binder:

| Kd [1] [nM] | EC50 [2] [nM] | Kd [3] [nM] | EC50 [4] [nM] | EC50 [5] [nM] | binding result [6] | Binder |
| --- | --- | --- | --- | --- | --- | --- |
| 4.58 | 1.86 | 4.38 | 1.89 | – | – | CD16-VH-RM72 (antibody) EVQLVESGGGLVQPGGSLRLSCAASGFTFSNYGMSWVRQAPGKGLEWIGSIYYSGQTNYNPSLKSLVTISRDNSKNTLYLQMNSLRAEDTATYYCARESIDYWGQGTLVTVSS |
| 5.15 | 4.57 | 20.6 | 7.66 | – | – | BM156-01 (antibody) EVQLVESGGGLVQPGGSLRLSCAASGFTFSNYGMSWVRQAPGKGLEWIGSIYYSGSTNYNPSLKSLVTISRDNSKNTLYLQMNSLRAEDTATYYCARESIDYWGQGTLVTVSS |
| 2.41 | 4.2 | 8.2 | 3.29 | – | – | CD16-VH-RM73 (antibody) EVQLVESGGGLVQPGGSLRLSCAASGFTFSNYGMSWVRQAPGKGLEWIGSIYYSGTTNYNPSLKSLVTISRDNSKNTLYLQMNSLRAEDTATYYCARESIDYWGQGTLVTVSS |
| 6.06 | 2.71 | 16.2 | 2.2 | – | – | CD16-VH-RM76 (antibody) EVQLVESGGGLVQPGGSLRLSCAASGFTFSNYGMSWVRQAPGKGLEWIGSIYYSGETNYNPSLKSLVTISRDNSKNTLYLQMNSLRAEDTATYYCARESIDYWGQGTLVTVSS |
| 2.45 | 1.8 | 2.69 | 1.25 | – | – | CD16-VH-RM81 (antibody) EVQLVESGGGLVQPGGSLRLSCAASGFTFSNYGMSWVRQAPGKGLEWIGSIYYTGSTNYNPSLKSLVTISRDNSKNTLYLQMNSLRAEDTATYYCARESIDYWGQGTLVTVSS |
| 1.24 | 1.42 | 5.31 | 1.21 | – | – | CD16-VH-RM77 (antibody) EVQLVESGGGLVQPGGSLRLSCAASGFTFSNYGMSWVRQAPGKGLEWIGSIYYNGSTNYNPSLKSLVTISRDNSKNTLYLQMNSLRAEDTATYYCARESIDYWGQGTLVTVSS |
